{"source": "paper doi:10.1101/2024.11.03.621760", "about": "(bioRxiv, 2024)", "target": "the molecule itself", "assay": "crystal structure; HALC3_919 alone, 2.1 Å, space group P 21 3, PDB 9C7Z"}
{"protein": "HALC3_919 (designed binder, also called HALC3_919 trimerization domain; source: E. coli, purified (Ni-NTA, SNAC cleavage, SEC)) MSGSEELLEELRELLERLQELLELIEQGKITPEQLREAIALLIEVLQILYEALRELAEQLQRLREELG", "values": [{"measurement": "stoichiometry N", "value": 3}]}
